From article PMC9061721 (Nature Communications, 2022)

What was measured:
[1] = target: recombinant human insulin (Homo sapiens, UniProt P01308); assay: ELISA; conditions: both partners purified
[2] = target: T1, H3 peptide 36-57HA2 (wild type) (Influenza A virus A/Hong Kong/1/1968 …, UniProt Q91MA7, strain); assay: ELISA; conditions: both partners purified
T1 construct: source: synthetic peptide

Chain of recombinant human insulin (P01308 whole entry, looked up): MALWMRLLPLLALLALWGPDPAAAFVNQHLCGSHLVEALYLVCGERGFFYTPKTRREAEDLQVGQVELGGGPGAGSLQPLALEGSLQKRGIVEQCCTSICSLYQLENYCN

Binder | binding result [1] | binding result [2]
antibody 28-2 (antibody, V domains shown) VH: EVQLVESGGGLVQPGGSLRLSCAASGFTFSTYSMNWVRQAPGKGLEWLSYISTSSSTIDYADSVKGRFTISRDNAKNSLYLQMNSLRDEDTAVYYCARDRGCSSTNCYVVGYYFYGMDVWGQGTTVTVSS VL: DIQMIQSPSSVSASVGDRVTITCRASQGISSYLAWYQQKPGKAPKLLIYAASRLQSGVPSRFSGSGSGTDFTLTISGLQPEDFATYHCQQANSFPLTFGQGTRLEIK | no binding | –
3I14 (antibody, V domains shown, source: Expi CHO cells, cotransfected, purified (Protein A Agarose)) VH: QVQLLESGGGVVQPGRSLRLSCAASGFTFSNYGMHWVRQAPGKGLEWVAIISFDGSKKYYANSVKGRSTISRDNSKNTLSLQMNSLGPEDTALYYCAKLPSPYYFDSRFVWVAASAFHFWGQGILVTVSS VL: not shown | – | binds
antibody 28-6 (antibody, V domains shown) VH: EVQLVQSGGGLAQPGGSLRLSCTASGFAFSSYGMNWVRQTPGKGLEWVSYISSGSTIIDYAGSVKGRFTISRDNAKNSLHLEMNSLRDEDTAVYYCARDRGCSSTTCYVIGYYYYGMDVWGQGTTVTVSS VL: DIQMTQSPSSVSASVGDRVTITCRASQGINRRLVWYQQKPGKVPKLLIYDASSLQCGVPSRFSGSGSGTDFTITISSLQPEDFATYYCQQADSFPLTFGQGTRLEIK | no binding | –
antibody 28-4 (antibody, V domains shown) VH: EVQLVQSGGGLVQPGGSLGLSCAASGFTFSNYNMNWVRQAPGKGLEWLAYISGSSNTIFYADSVKGRFTISRDNAKNSLHLQMSSLRDEDTAVYYCARDRGCNSNICYVVGYYFYGMDDWGQGTTVTVSS VL: DIQMTQSPSSVSASVGDRVTITCRASQAITSYLVWYQQKPGKAPKLLIYDAARLESGVPSRFSGSGSGTHFTLTINNLQPEDFATYYCQQADSFPLTFGQGTRLEIK | no binding | –
